Experiments:
[1] = biological target: T1, hPD1 (soluble, ELISA of Example 20) (human, UniProt Q15116 25-167, limits assumed); test: ELISA, hPD1
[2] = biological target: T2, mPD1 (soluble, ELISA of Examples 20 and 24) (mouse, UniProt Q02242 25-167, limits assumed); test: ELISA, biotin-mPD1 on streptavidin
T2 construct: also called Biotin-mPD1
T2 sequence (looked up): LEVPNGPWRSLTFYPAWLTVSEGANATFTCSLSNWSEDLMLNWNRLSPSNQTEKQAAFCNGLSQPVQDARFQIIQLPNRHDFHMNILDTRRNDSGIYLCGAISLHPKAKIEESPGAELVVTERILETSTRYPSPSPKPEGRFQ

[3] = biological target: T1, hPD1 (soluble, ELISA of Example 20); test: blocking ELISA, hPD1 to hPDL1
[4] = biological target: T2, mPD1 (soluble, ELISA of Examples 20 and …); test: ELISA, mPD1
[5] = biological target: T3, human PD-1 expressed on cells (human, UniProt Q15116 25-288); test: cell-based or functional assay
[6] = biological target: T4, mouse PD-1 expressed on cells (mouse, UniProt Q02242 25-288); test: cell-based or functional assay
T4 sequence (looked up): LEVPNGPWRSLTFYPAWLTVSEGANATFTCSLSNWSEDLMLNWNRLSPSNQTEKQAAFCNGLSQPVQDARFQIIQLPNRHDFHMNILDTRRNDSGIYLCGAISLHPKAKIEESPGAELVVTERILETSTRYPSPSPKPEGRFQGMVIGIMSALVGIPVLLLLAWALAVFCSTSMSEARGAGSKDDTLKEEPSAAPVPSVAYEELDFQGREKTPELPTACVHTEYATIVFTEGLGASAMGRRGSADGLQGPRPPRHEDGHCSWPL

mPD-1-Fc [7] = biological target: T5, mPD-1-Fc (mouse; human, UniProt Q02242 25-167, limits assumed); test: SPR Biacore, mPD1-Fc
T5 construct: domain: IgV domain; not shown: human IgG1 Fc
T5 sequence (looked up): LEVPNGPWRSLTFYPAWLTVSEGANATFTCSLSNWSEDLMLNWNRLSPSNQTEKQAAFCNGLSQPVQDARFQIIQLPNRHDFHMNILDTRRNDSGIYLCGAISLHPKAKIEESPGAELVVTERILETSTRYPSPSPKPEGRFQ

[8] = biological target: T4, mouse PD-1 expressed on cells; test: flow cytometry, mPD1-293 cells
[9] = biological target: T2, mPD1 (soluble, ELISA of Examples 20 and …); test: blocking ELISA, mPD1 to mPDL1
[10] = biological target: T4, mouse PD-1 expressed on cells; test: flow cytometry, mPD1-eff cells
[11] = biological target: T3, human PD-1 expressed on cells; test: flow cytometry, hPD1-293 cells
mPD-1-his [12] = biological target: T6, mPD-1-his (mouse, UniProt Q02242 25-167, limits assumed); test: SPR Biacore, mPD1-his
T6 construct: domain: IgV domain
T6 sequence: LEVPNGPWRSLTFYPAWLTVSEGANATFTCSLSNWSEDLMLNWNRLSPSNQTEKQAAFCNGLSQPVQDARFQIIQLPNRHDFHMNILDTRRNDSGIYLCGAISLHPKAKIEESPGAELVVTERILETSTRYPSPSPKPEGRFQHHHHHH

hPD-1-Fc = biological target: T7, hPD-1-Fc (human, UniProt Q15116 25-167); test: SPR Biacore, hPD1-Fc
T7 construct: domain: IgV domain; also called human PD-1-Fc; not shown: human IgG1 Fc

mPD-1-his [13] = biological target: T6, mPD-1-his; test: kinetics (Ka/Kd/KD; method not named), mPD-1-his
[14] = biological target: T2, mPD1 (soluble, ELISA of Examples 20 and …); test: ELISA, dose-response binding to mPD-1
mPD-1-Fc [15] = biological target: T5, mPD-1-Fc; test: kinetics, mPD-1-Fc (off rate outside the machine limit)
[16] = biological target: T4, mouse PD-1 expressed on cells; test: cell-based or functional assay; remark: listed apart in the source
[17] = biological target: T2, mPD1 (soluble, ELISA of Examples 20 and …); test: competition ELISA, blocking of mPD-L1 binding to mPD-1
[18] = biological target: T4, mouse PD-1 expressed on cells; test: flow cytometry on mPD-1-HEK293 cells

T7 sequence (Q15116 25-167 limits assumed): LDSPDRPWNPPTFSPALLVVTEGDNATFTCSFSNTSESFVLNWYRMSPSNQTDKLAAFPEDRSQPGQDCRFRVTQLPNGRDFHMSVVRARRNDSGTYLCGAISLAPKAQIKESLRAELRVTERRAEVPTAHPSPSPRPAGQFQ
T3 sequence (Q15116 25-288): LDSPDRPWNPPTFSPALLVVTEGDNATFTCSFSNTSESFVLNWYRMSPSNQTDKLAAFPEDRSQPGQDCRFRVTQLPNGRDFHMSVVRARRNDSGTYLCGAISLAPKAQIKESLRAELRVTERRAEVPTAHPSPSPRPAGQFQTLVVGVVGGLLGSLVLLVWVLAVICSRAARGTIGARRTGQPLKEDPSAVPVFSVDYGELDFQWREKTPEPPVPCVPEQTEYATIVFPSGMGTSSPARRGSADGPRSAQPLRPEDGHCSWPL
T1 sequence (Q15116 25-167 limits assumed): as the sequence (Q15116 25-167 limits assumed) above

B1: m2C1 (antibody, V domains shown)
VH: QVQLVQSGAEVKKPGASVKVSCKASGHTFTSYYIHWVRQAPGQGLEWMGIINPSGGSTSYAQKFQGRVTMTRDTSTSTVYMELSSLRSEDTAVYYCARDRAYGGAGDYWGQGTLVTVSS
VL: DIQMTQSPSSLSASVGDRVTITCRASRSISSWLAWYQQKPGKAPKLLIYAASSLQSGVPSRFSGSGSGTDFTLTISSLQPEDFATYYCQQSYSIPATFGQGTKVEIK
notes: R3A9 derivative; also called m3CM (apparent misprint)
[1]
  EC50: 0.149 nM
[2]
  EC50: 0.291 nM
[3]
  IC50: 5.71 nM
[4]
  EC50: 0.572 nM
[5]
  IC50, Promega blockade bioassay: 31.2 nM
[6]
  IC50, Promega blockade bioassay: 1.13 nM
mPD-1-Fc [7]
  Kd: 2.91 nM
  koff: 0.000583 s⁻¹
  kon: 200000 M⁻¹ s⁻¹
[8]
  EC50: 0.411 nM
[9]
  IC50: 0.464 nM
[10]
  EC50: 0.373 nM
[11]
  EC50: 1.26 nM
mPD-1-his [12]
  Kd: 3.22 nM
  koff: 0.000693 s⁻¹
  kon: 215000 M⁻¹ s⁻¹
hPD-1-Fc
  Kd: 2.81 nM
  koff: 0.000355 s⁻¹
  kon: 126000 M⁻¹ s⁻¹

B2: 1N-m3A7/IL-15 (other)
light: DIQMTQSPSSLSASVGDRVTITCRASRSISNWLAWYQQKPGKAPKLLIYAASSLQSGVPSRFSGSGSGTDFTLTISSLQPEDFATYYCQQSYSAPVTFGQGTKVEIKRADAAPTVSIFPPSSEQLTSGGASVVCFLNNFYPKDINVKWKIDGSERQNGVLNSWTDQDSKDSTYSMSSTLTLTKDEYERHNSYTCEATHKTSTSPIVKSFNRNEC
heavy 1: QVQLVQSGAEVKKPGASVKVSCKASGHTFTSYYIHWVRQAPGQGLEWMGIINPSGGSTSYAQKFQGRVTMTRDTSTSTVYMELSSLRSEDTAVYYCARDRAYGGAGDYWGQGTLVTVSSAKTTAPSVYPLAPVCGDTTGSSVTLGCLVKGYFPEPVTLTWNSGSLSSGVHTFPAVLQSDLYTLSSSVTVTSSTWPSQSITCNVAHPASSTKVDKKIEPRGPTIKPCPPCKCPAPNAAGGPSVFIFPPKIKDVLMISLSPIVTCVVVDVSEDDPDVQISWFVNNVEVHTAQTQTHREDYNSTLRVVSALPIQHQDWMSGKEFKCKVNNKDLGAPIERTISKPKGSVRAPQVYVYPPPEEEMTKKQVTLTCMVTDFMPEDIYVEWTNNGKTELNYKNTEPVLDSDGSYAMVSKLRVEKKNWVERNSYSCSVVHEGLHNHHTTKSFSRTPGK
heavy 2: ITCPPPVSIEHADIRVKNYSVNSRERYVCNSGFKRKAGTSTLIECVINKNTNVAHWTTPSLKCIRDPALVHQRPAPPSGGSGGGGSGGGSGGGGSLQNWIDVRYDLEKIESLIQSIHIDTTLYTDSDFHPSCKVTAMNCFLLELQVILHEYSNMTLNETVRNVLYLANSTLSSNKNVAESGCKECEELEEKTFTEFLQSFIRIVQMFINTSGGGGSGGGGSGGGGSGGGGSGGGGSGGGGSQVQLVQSGAEVKKPGASVKVSCKASGHTFTSYYIHWVRQAPGQGLEWMGIINPSGGSTSYAQKFQGRVTMTRDTSTSTVYMELSSLRSEDTAVYYCARDRAYGGAGDYWGQGTLVTVSSAKTTAPSVYPLAPVCGDTTGSSVTLGCLVKGYFPEPVTLTWNSGSLSSGVHTFPAVLQSDLYTLSSSVTVTSSTWPSQSITCNVAHPASSTKVDKKIEPRGPTIKPCPPCKCPAPNAAGGPSVFIFPPKIKDVLMISLSPIVTCVVVDVSEDDPDVQISWFVNNVEVHTAQTQTHREDYNSTLRVVSALPIQHQDWMSGKEFKCKVNNKDLGAPIERTISKPKGSVRAPQVYVLPPPEEEMTKKQVTLLCMVTDFMPEDIYVEWTNNGKTELNYLNWEPVLDSDGSYFMYSKLRVEKKNWVERNSYSCSVVHEGLHNHHTTKSFSRTPGK
notes: antibody-cytokine fusion
mPD-1-his [13]
  Kd: 0.457 nM
[14]
  EC50 (read off the curve): ~0.2 nM
mPD-1-Fc [15]
  Kd: 0.0878 nM
[16]
  EC50 (read off the curve): ~0.8 nM
[17]
  IC50 (read off the curve): ~0.3 nM
[18]
  EC50 (read off the curve): ~0.8 nM
